T1: His6-PhoP (Riemerella anatipestifer RA-YM, UniProt E4TAE7 2-228)
T1 sequence: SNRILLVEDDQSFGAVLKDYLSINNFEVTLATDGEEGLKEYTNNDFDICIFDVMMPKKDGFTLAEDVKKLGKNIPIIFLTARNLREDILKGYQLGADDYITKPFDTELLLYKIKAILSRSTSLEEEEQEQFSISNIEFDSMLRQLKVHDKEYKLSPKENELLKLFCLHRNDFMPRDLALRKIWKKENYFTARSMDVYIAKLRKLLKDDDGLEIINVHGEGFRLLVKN

T2: His6-PhoP-DBD (Riemerella anatipestifer RA-YM, UniProt E4TAE7 130-228)
T2 sequence: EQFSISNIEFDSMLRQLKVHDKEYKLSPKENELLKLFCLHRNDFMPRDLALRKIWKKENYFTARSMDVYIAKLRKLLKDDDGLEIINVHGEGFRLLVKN

B1: KYF39_07405 (OMPbB) probe (dsDNA)
DNA 1: ATAAAGTGGCAAATTTAACTTTAATAATTAAAAGA
DNA 2: TCTTTTAATTATTAAAGTTAAATTTGCCACTTTAT
B2: KYF39_00905 (transporter) probe (dsDNA)
DNA 1: CAAAAAATATTTCATTAACAGAATAGACAATCATA
DNA 2: TATGATTGTCTATTCTGTTAATGAAATATTTTTTG
B3: phoPR motif probe (dsDNA)
DNA 1: AAACTCATAATAATCTGTTAAAAAACTCGTTTTTA
DNA 2: TAAAAACGAGTTTTTTAACAGATTATTATGAGTTT
B4: dedA motif probe (dsDNA)
DNA 1: ATCTATAAAGAGATTTAACAAATTTTATAATTCTA
DNA 2: TAGAATTATAAAATTTGTTAAATCTCTTTATAGAT
B5: KYF39_06865 motif probe (dsDNA)
DNA 1: CGTTAAAAAATAAAGCGAGGTTTTGTTGTTTTAAA
DNA 2: TTTAAAACAACAAAACCTCGCTTTATTTTTTAACG
B6: KYF39_00915 (transposase) probe (dsDNA)
DNA 1: TGAAAATTTCAAATTTAACTAAAGCTTATAGCAAT
DNA 2: ATTGCTATAAGCTTTAGTTAAATTTGAAATTTTCA

Experiments:
Details in all cases: protein: recombinant; tags: His6 (pET-28a); chain copies: 2; label: 5' biotin on strand 1; blunt
[1] = target: T1, His6-PhoP; assay: EMSA
[2] = target: T1, His6-PhoP; assay: EMSA; unphosphorylated
[3] = target: T1, His6-PhoP; assay: EMSA; phosphorylated by acetyl phosphate
[4] = target: T2, His6-PhoP-DBD; assay: EMSA

Row | Binder | binding result [1] | Kd [2] [nM] | Kd [3] [nM] | binding result [4]
1 | B1 | binds |  |  | 
2 | B2 |  | 39.2 | 39.5 | 
3 | B3 | binds |  |  | no binding
4 | B4 | binds |  |  | 
5 | B5 | binds |  |  | 
6 | B6 |  | 29.8 | 33.9 | 
